{"source": "the supplement of paper PMC12764529", "note": "± gives the half width of the 95% confidence interval."}
{"assay": "folding stability dG unfold from trypsin proteolysis; higher = more stable", "description": "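Folding stability of de novo designed mini-proteins (<80 aa, no Cys; designed by TrROS, TrMRF, ProteinMPNN and the joint model) was measured by cDNA display proteolysis with trypsin and chymotrypsin. Each protease was used at 11 concentrations in a threefold dilution series plus a no-protease condition. K50 was inferred by Bayesian fitting of sequencing counts, and dG unfold was derived against a sequence-predicted unfolded-state K50 (Tsuboyama et al. method). Sequences shown include variable-length N-terminal GS-type padding (SAGGSAGG...) inside a display construct carrying a PA tag. Rows were kept only if the AF2 dimer inter-PAE was >15, to exclude likely homo-oligomers.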", "units": {"folding stability dG unfold": "kcal/mol"}}
{"sequence": "SAGGSAIRIEPDEDGYIKIEKPSPPGEPASELIEELKDFFPNWEVETHPHPNGRAEIIFRIPPDQFSAGGSA [r15_1047_TrROS]", "folding stability dG unfold": "0.244 ± 0.077"}
{"sequence": "SAGGSAGGSAGGMTTITVKDKTKEEIEKELAEKYNVKKVTVTPIEGNSVKVEVEIEPLGSAGGSAGGSAGGS [r10_1219_JUSTAS]", "folding stability dG unfold": "-0.216 ± 0.19"}
{"sequence": "SAGGSAGGSAGGMKVSVSLDILETEVSPDGTVTATYKDESGEIRTITKYVEVKLKPGLASAGGSAGGSAGGS [r10_281_JUSTAS]", "folding stability dG unfold": "-0.148 ± 0.067"}
{"sequence": "SAGGSAGGSANSSSLPPNYVTPLPITVTDSRPGSYMPLEEREARAQALAEANPGVTVTVVRESAGGSAGGSA [r18_499_JUSTAS]", "folding stability dG unfold": "-0.373 ± 0.099"}
{"sequence": "SAGGMVVTSESREPDGTWTVRTVYRDPAGNLTITSSSTSSATVTRKDSAGTPSTAASTTNTYTSAALSAGGS [r8_270_JUSTAS]", "folding stability dG unfold": "0.216 ± 0.067"}
{"sequence": "SAGGMRIWRVPETGVRAEVGTGGPWLVTITSSTTPVPEVRPVPPEEVEAFLRARFPGPVEEVERRPVPESAG [r5_519_JUSTAS]", "folding stability dG unfold": "-0.647 ± 0.34"}
{"sequence": "SAGGAMPKTITVTDPTSSREEAEALLASPERLEAIAEEIKPEFPGVDLTVTVSSDPATGTLTITIVSSAGGS [r16_320_JUSTAS]", "folding stability dG unfold": "0.289 ± 0.072"}
{"sequence": "SAGGSAGGSAGGVRIRPPNGEWIRIDNAPDDEDIKDKLKKHPNVKPEIDPDTNEAWIPVSAGGSAGGSAGGS [r10_792_TrROS]", "folding stability dG unfold": "-1.09 ± 0.42"}
{"sequence": "SAGGSAGGSAGGPIKVKADKVTVEKRRNPENGKEYVELTVPGPGGTRTGRFPAEDLDKISAGGSAGGSAGGS [r10_447_TrROS]", "folding stability dG unfold": "-0.654 ± 0.21"}
{"sequence": "SVVTLEQVAELVEKGVELVAVLPDNRLLFYDPEREEPIELEVEEVPPPKPIFIEGGVESLEEALKFLEAESA [r9_649_TrMRF]", "folding stability dG unfold": "0.456 ± 0.027"}
{"sequence": "SAGGSAGGSAMPEPVTITVRVPYEPDEAEAAAERIREEEYPDAKSITVTRDPATGTATFTVNSAGGSAGGSA [r18_390_JUSTAS]", "folding stability dG unfold": "-0.222 ± 0.18"}
{"sequence": "SAGGSAGGSTTSTIKVTLENPSGSPLKLETATITTDPVAGTSTLTVTVPGTGETKFVGTNPNLSSAGGSAGG [r6_330_JUSTAS]", "folding stability dG unfold": "0.713 ± 0.052"}
{"sequence": "SAGGFRINIPPNMPKEKLEEIQDEAEEESGMPVTINTNPDDGSLHIEFPGGPEWKQRRIQDEIRELLSAGGS [r16_227_TrROS]", "folding stability dG unfold": "-0.507 ± 0.44"}
{"sequence": "SAGGSAGGSAGGMKVEVVDITGPPDLSPDATTTTKHPNGVTSTTTMTDPATRTSTIYTPESAGGSAGGSAGG [r11_362_JUSTAS]", "folding stability dG unfold": "-0.899 ± 0.83"}
{"sequence": "SAGGSAGGSQKIEITKVEPERGPNGRPYHRVNIEIVIPDGKPRKFDFYFDDPEDLENMTIELPSAGGSAGGS [r20_130_TrROS]", "folding stability dG unfold": "-0.861 ± 0.17"}
{"sequence": "SAGGSAGGSAVEEEVERIEKAVGVPIDPGSSVTKVKEGVEPVLPYRMDIKPGVESPELLLLSAGGSAGGSAG [r3_427_JUSTAS]", "folding stability dG unfold": "-0.908 ± 0.53"}
{"sequence": "SAGMDPNEKREVVVELEFEVPDPSNPEGGSVPIRVTLKATGKGTEEEAEELKKKAEEEAREKVEKGELLSAG [r5_532_JUSTAS]", "folding stability dG unfold": "0.687 ± 0.15"}
{"sequence": "SAGGSAGGSYSKNGQPPPTREIEIIILVEDPEEAENKADELSEMLGMPIKVEIIPEEDAKKMISAGGSAGGS [r12_766_TrROS]", "folding stability dG unfold": "0.0437 ± 0.24"}
{"sequence": "SMTITHKIPPDDPEKAEEEIKEKIEKETGLKVEKVEVPEGDGATLVVTIDKEKPVVTAEVVPLLPDGTPVSA [r9_173_JUSTAS]", "folding stability dG unfold": "0.85 ± 0.17"}
{"sequence": "SAGGSAGGSAGMEIEVEVDPSTNTVKLTKKIGGKWVEATVTRTPGTGTITLPDGSTLKLTSAGGSAGGSAGG [r11_395_JUSTAS]", "folding stability dG unfold": "-0.709 ± 0.47"}
{"sequence": "SAGGSAGGSAGTITTTTDPATGEYTVTIPIASGDGTPVGTIPVTVPKSDPSAAAAFIAATSAGGSAGGSAGG [r11_77_JUSTAS]", "folding stability dG unfold": "0.106 ± 0.11"}
{"sequence": "SAGGSAGGSAGATVLQQGTATPPDGTTVTFNYNITLPSDVLISVDKNPPNPDLVTKIEAGSAGGSAGGSAGG [r11_781_JUSTAS]", "folding stability dG unfold": "0.154 ± 0.029"}
{"sequence": "SAGGSAGGSMKPVLTIPASVTDPEVAIAILREAKAALPEGTQLEVVMPGGAEEELKKAGLILKSAGGSAGGS [r12_992_JUSTAS]", "folding stability dG unfold": "-1.4 ± 0.71"}
{"sequence": "SAGGSAGGSAGGMTEYVPGEGKVLVTYPDGTTKVVPVDPATPEEFRAELEAAGVPEIKPLSAGGSAGGSAGG [r7_139_JUSTAS]", "folding stability dG unfold": "0.762 ± 0.027"}
{"sequence": "SAIRGLPPEEIEKAVKKLAKEGNVEIEIKPFTMRVYPPDGGQQPYQYYQIEIYNPDNGKPIEDKIKKLFSAG [r14_628_TrROS]", "folding stability dG unfold": "0.167 ± 0.25"}
{"sequence": "SAGGSAGGSAGTVTVDPEKGVVYVPLPEPISPEEVIEKRKEPELDVKILSVGENVAVILVSAGGSAGGSAGG [r17_323_JUSTAS]", "folding stability dG unfold": "0.493 ± 0.027"}
{"sequence": "SAGGSAGGSAGGGSMTLSLDTRPEDGTLVLVSTFVDPASGLVSVTTTYPDSTVTTTLPVGSAGGSAGGSAGG [r7_402_JUSTAS]", "folding stability dG unfold": "0.998 ± 0.049"}
{"sequence": "SAGGSAGGSAGGRITINPENGMVQIKGPNGNQHTFPMDDASELQKEFGLPNIDIEVFPPNSAGGSAGGSAGG [r7_235_TrROS]", "folding stability dG unfold": "0.292 ± 0.15"}
{"sequence": "SAGGSAGGSAGGSEPWYVRIQIPDGNQIMFPPGSEAKIEIPKEEKDIRITEVIPADDIKSAGGSAGGSAGGS [r4_122_TrROS]", "folding stability dG unfold": "0.0224 ± 0.13"}
{"sequence": "SAGGSAGGSAGMEIPEDWTVVEESEVPDERLVTVHNPKTGELYVVTQPPATGEETVERYLSAGGSAGGSAGG [r11_896_JUSTAS]", "folding stability dG unfold": "0.0248 ± 0.2"}
{"sequence": "SAGGSTLDELIDAIKKAAKKGKEPVEIEFPNPNGGMIKINPDGSIETFPPNGEPQRFKIPLDDLKISAGGSA [r2_97_TrROS]", "folding stability dG unfold": "-0.568 ± 0.11"}
{"sequence": "SAGGFRITPEFLEELLKNMPPGDPNKTITVKVEMPMRYEPRKGGNGQPQYRHEYPMTHEFPITIPPKSAGGS [r16_708_TrROS]", "folding stability dG unfold": "0.32 ± 0.066"}
{"sequence": "SAGGSAGGSMIVVKTENGEEIEISKDALKPGMTAEELKAKLPPGVKKIEIVEVKEVEVEVEEESAGGSAGGS [r20_161_TrROS_Hall]", "folding stability dG unfold": "-0.865 ± 0.4"}
{"sequence": "SAGGSAGGSSMPPGWSVTSETVVESIIETPNGPIIKVTTSKTTVTPPNGPPSTYTTTSEDPLGSAGGSAGGS [r12_544_JUSTAS]", "folding stability dG unfold": "-0.314 ± 0.13"}
{"sequence": "SMSEELKKEIEAFLKEKGASIDFKTDPSTGKITITVTIPGKGTTTTITLTFPPDNPEEIKEKIKELIEKGSA [r9_42_JUSTAS]", "folding stability dG unfold": "4.88 ± 0.6"}
{"sequence": "SAGGSAGGSMTVKKIEIKPPPGGTDLATITTEKVDPSTGKPSLSTSTVTVPKNNPEAIEKFLSSAGGSAGGS [r12_691_JUSTAS]", "folding stability dG unfold": "-0.257 ± 0.18"}
